From article PMC9788759 come the findings set out here.

This assay addresses reconstituted 26S proteasome with LD555 donor dye on Rpn9 (F2AzF) and LD655 acceptor dye on Rpt5 (Q49AzF), wild type (yeast | not stated | yeast (endogenous gene tagged in strain W303) | yeast (endogenous in W303)) (UniProt P33299).
UniProt P33299, sequence (P33299 whole entry, looked up): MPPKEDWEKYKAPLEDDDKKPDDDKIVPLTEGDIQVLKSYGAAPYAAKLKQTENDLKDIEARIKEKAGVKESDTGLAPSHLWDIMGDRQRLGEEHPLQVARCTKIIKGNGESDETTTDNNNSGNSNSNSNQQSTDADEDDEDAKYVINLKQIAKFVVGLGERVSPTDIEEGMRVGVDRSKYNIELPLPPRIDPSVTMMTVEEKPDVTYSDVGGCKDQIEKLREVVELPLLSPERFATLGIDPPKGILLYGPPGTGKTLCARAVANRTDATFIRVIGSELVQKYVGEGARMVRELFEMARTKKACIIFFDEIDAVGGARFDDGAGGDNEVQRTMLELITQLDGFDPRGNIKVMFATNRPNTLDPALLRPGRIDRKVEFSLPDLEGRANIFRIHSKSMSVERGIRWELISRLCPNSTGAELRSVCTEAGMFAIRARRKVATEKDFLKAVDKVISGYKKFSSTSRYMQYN

In turn, “unanchored K48-linked ubiquitin tetramer (from UniProt P0CG63 1-76)” showed a rate of the s1-to-non-s1 transition (ks1) of the substrate-free proteasome in the single-molecule FRET conformational dynamics assay; 1.2 s^-1 without chains of 0.4 s⁻¹.
